*1 amine or outer side, *2 acyl side, *3 side chain or, on linkers, in order; H or OH if unused. Side-chain parts run from the residue outwards. The star is where a group is joined. C18 diacid = O=C(O)CCCCCCCCCCCCCCCCC(=O)*; γGlu = O=C(O)[C@H](CCC(=O)[*:2])N[*:1]; Isovaleryl = CC(C)CC(=O)*; AEEA = NCCOCCOCC(=O)O
Molecular target: T1, human neuropeptide Y2 receptor (human, UniProt P49146 1-381)
T1 construct: whole, on cells; also called hNPY2 receptor; hNPY2-R
T1 sequence (looked up): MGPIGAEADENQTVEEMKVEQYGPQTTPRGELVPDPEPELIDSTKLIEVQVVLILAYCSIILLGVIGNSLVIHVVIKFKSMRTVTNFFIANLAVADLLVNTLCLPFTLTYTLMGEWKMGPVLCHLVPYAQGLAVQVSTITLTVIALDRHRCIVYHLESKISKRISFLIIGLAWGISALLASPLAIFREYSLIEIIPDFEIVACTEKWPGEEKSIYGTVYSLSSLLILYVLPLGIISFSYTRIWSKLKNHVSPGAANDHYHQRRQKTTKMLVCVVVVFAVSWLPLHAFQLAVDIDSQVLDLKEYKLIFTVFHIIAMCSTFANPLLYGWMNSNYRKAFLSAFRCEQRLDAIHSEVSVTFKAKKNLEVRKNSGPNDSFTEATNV
Assay: radioligand competition (125I-PYY(1-36)), hNPY2R membranes
Method in brief: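 Commercial human Y2 receptor membranes (0.5 μg protein/well) were incubated with peptide for 2 h at room temperature in 50 mM HEPES, 5 mM MgCl₂, 1 mM CaCl₂, pH 7.4, with 0.2% ovalbumin. Bound radioligand was separated on PEI-soaked GF/C filters and counted by scintillation, and IC₅₀ came from nonlinear sigmoidal regression.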

B1: Compound 199 (peptide)
peptide: Isovaleryl-APEK([AEEA-AEEA-γGlu-C18 diacid])PEEDAEPEETQRYYVSLRHYYNWLTRQRY-NH2
SMILES: CC(C)CC(=O)N[C@@H](C)C(=O)N1CCC[C@H]1C(=O)N[C@@H](CCC(=O)O)C(=O)N[C@@H](CCCCNC(=O)COCCOCCNC(=O)COCCOCCNC(=O)CC[C@H](NC(=O)CCCCCCCCCCCCCCCCC(=O)O)C(=O)O)C(=O)N1CCC[C@H]1C(=O)N[C@@H](CCC(=O)O)C(=O)N[C@@H](CCC(=O)O)C(=O)N[C@@H](CC(=O)O)C(=O)N[C@@H](C)C(=O)N[C@@H](CCC(=O)O)C(=O)N1CCC[C@H]1C(=O)N[C@@H](CCC(=O)O)C(=O)N[C@@H](CCC(=O)O)C(=O)N[C@H](C(=O)N[C@@H](CCC(N)=O)C(=O)N[C@@H](CCCNC(=N)N)C(=O)N[C@@H](Cc1ccc(O)cc1)C(=O)N[C@@H](Cc1ccc(O)cc1)C(=O)N[C@H](C(=O)N[C@@H](CO)C(=O)N[C@@H](CC(C)C)C(=O)N[C@@H](CCCNC(=N)N)C(=O)N[C@@H](Cc1c[nH]cn1)C(=O)N[C@@H](Cc1ccc(O)cc1)C(=O)N[C@@H](Cc1ccc(O)cc1)C(=O)N[C@@H](CC(N)=O)C(=O)N[C@@H](Cc1c[nH]c2ccccc12)C(=O)N[C@@H](CC(C)C)C(=O)N[C@H](C(=O)N[C@@H](CCCNC(=N)N)C(=O)N[C@@H](CCC(N)=O)C(=O)N[C@@H](CCCNC(=N)N)C(=O)N[C@@H](Cc1ccc(O)cc1)C(N)=O)[C@@H](C)O)C(C)C)[C@@H](C)O
- Ki: 5.69 nM

B2: Compound 207 (peptide)
peptide: Isovaleryl-APAK([AEEA-AEEA-γGlu-C18 diacid])PEADAEPEELQRYYVSLRHYYNWLTRQRY-NH2
SMILES: CC(C)CC(=O)N[C@@H](C)C(=O)N1CCC[C@H]1C(=O)N[C@@H](C)C(=O)N[C@@H](CCCCNC(=O)COCCOCCNC(=O)COCCOCCNC(=O)CC[C@H](NC(=O)CCCCCCCCCCCCCCCCC(=O)O)C(=O)O)C(=O)N1CCC[C@H]1C(=O)N[C@@H](CCC(=O)O)C(=O)N[C@@H](C)C(=O)N[C@@H](CC(=O)O)C(=O)N[C@@H](C)C(=O)N[C@@H](CCC(=O)O)C(=O)N1CCC[C@H]1C(=O)N[C@@H](CCC(=O)O)C(=O)N[C@@H](CCC(=O)O)C(=O)N[C@@H](CC(C)C)C(=O)N[C@@H](CCC(N)=O)C(=O)N[C@@H](CCCNC(=N)N)C(=O)N[C@@H](Cc1ccc(O)cc1)C(=O)N[C@@H](Cc1ccc(O)cc1)C(=O)N[C@H](C(=O)N[C@@H](CO)C(=O)N[C@@H](CC(C)C)C(=O)N[C@@H](CCCNC(=N)N)C(=O)N[C@@H](Cc1c[nH]cn1)C(=O)N[C@@H](Cc1ccc(O)cc1)C(=O)N[C@@H](Cc1ccc(O)cc1)C(=O)N[C@@H](CC(N)=O)C(=O)N[C@@H](Cc1c[nH]c2ccccc12)C(=O)N[C@@H](CC(C)C)C(=O)N[C@H](C(=O)N[C@@H](CCCNC(=N)N)C(=O)N[C@@H](CCC(N)=O)C(=O)N[C@@H](CCCNC(=N)N)C(=O)N[C@@H](Cc1ccc(O)cc1)C(N)=O)[C@@H](C)O)C(C)C
- Ki: 1.07 nM

B3: Compound 208 (peptide)
peptide: Isovaleryl-APEK([AEEA-AEEA-γGlu-C18 diacid])PEEDASEEETQRYYVSLRHYYNWLTRQRY-NH2
SMILES: CC(C)CC(=O)N[C@@H](C)C(=O)N1CCC[C@H]1C(=O)N[C@@H](CCC(=O)O)C(=O)N[C@@H](CCCCNC(=O)COCCOCCNC(=O)COCCOCCNC(=O)CC[C@H](NC(=O)CCCCCCCCCCCCCCCCC(=O)O)C(=O)O)C(=O)N1CCC[C@H]1C(=O)N[C@@H](CCC(=O)O)C(=O)N[C@@H](CCC(=O)O)C(=O)N[C@@H](CC(=O)O)C(=O)N[C@@H](C)C(=O)N[C@@H](CO)C(=O)N[C@@H](CCC(=O)O)C(=O)N[C@@H](CCC(=O)O)C(=O)N[C@@H](CCC(=O)O)C(=O)N[C@H](C(=O)N[C@@H](CCC(N)=O)C(=O)N[C@@H](CCCNC(=N)N)C(=O)N[C@@H](Cc1ccc(O)cc1)C(=O)N[C@@H](Cc1ccc(O)cc1)C(=O)N[C@H](C(=O)N[C@@H](CO)C(=O)N[C@@H](CC(C)C)C(=O)N[C@@H](CCCNC(=N)N)C(=O)N[C@@H](Cc1c[nH]cn1)C(=O)N[C@@H](Cc1ccc(O)cc1)C(=O)N[C@@H](Cc1ccc(O)cc1)C(=O)N[C@@H](CC(N)=O)C(=O)N[C@@H](Cc1c[nH]c2ccccc12)C(=O)N[C@@H](CC(C)C)C(=O)N[C@H](C(=O)N[C@@H](CCCNC(=N)N)C(=O)N[C@@H](CCC(N)=O)C(=O)N[C@@H](CCCNC(=N)N)C(=O)N[C@@H](Cc1ccc(O)cc1)C(N)=O)[C@@H](C)O)C(C)C)[C@@H](C)O
- Ki: 3.8 nM

B4: Compound 205 (peptide)
peptide: Isovaleryl-APEK([AEEA-AEEA-γGlu-C18 diacid])PEEEASPEELQKYYVSLRHYYNWLTRQRY-NH2
SMILES: CC(C)CC(=O)N[C@@H](C)C(=O)N1CCC[C@H]1C(=O)N[C@@H](CCC(=O)O)C(=O)N[C@@H](CCCCNC(=O)COCCOCCNC(=O)COCCOCCNC(=O)CC[C@H](NC(=O)CCCCCCCCCCCCCCCCC(=O)O)C(=O)O)C(=O)N1CCC[C@H]1C(=O)N[C@@H](CCC(=O)O)C(=O)N[C@@H](CCC(=O)O)C(=O)N[C@@H](CCC(=O)O)C(=O)N[C@@H](C)C(=O)N[C@@H](CO)C(=O)N1CCC[C@H]1C(=O)N[C@@H](CCC(=O)O)C(=O)N[C@@H](CCC(=O)O)C(=O)N[C@@H](CC(C)C)C(=O)N[C@@H](CCC(N)=O)C(=O)N[C@@H](CCCCN)C(=O)N[C@@H](Cc1ccc(O)cc1)C(=O)N[C@@H](Cc1ccc(O)cc1)C(=O)N[C@H](C(=O)N[C@@H](CO)C(=O)N[C@@H](CC(C)C)C(=O)N[C@@H](CCCNC(=N)N)C(=O)N[C@@H](Cc1c[nH]cn1)C(=O)N[C@@H](Cc1ccc(O)cc1)C(=O)N[C@@H](Cc1ccc(O)cc1)C(=O)N[C@@H](CC(N)=O)C(=O)N[C@@H](Cc1c[nH]c2ccccc12)C(=O)N[C@@H](CC(C)C)C(=O)N[C@H](C(=O)N[C@@H](CCCNC(=N)N)C(=O)N[C@@H](CCC(N)=O)C(=O)N[C@@H](CCCNC(=N)N)C(=O)N[C@@H](Cc1ccc(O)cc1)C(N)=O)[C@@H](C)O)C(C)C
- Ki: 1.9 nM

B5: Compound 202 (peptide)
peptide: Isovaleryl-APEK([AEEA-AEEA-γGlu-C18 diacid])PEEDAAPEELQKYYVSLRHYYNWLTRQRY-NH2
SMILES: CC(C)CC(=O)N[C@@H](C)C(=O)N1CCC[C@H]1C(=O)N[C@@H](CCC(=O)O)C(=O)N[C@@H](CCCCNC(=O)COCCOCCNC(=O)COCCOCCNC(=O)CC[C@H](NC(=O)CCCCCCCCCCCCCCCCC(=O)O)C(=O)O)C(=O)N1CCC[C@H]1C(=O)N[C@@H](CCC(=O)O)C(=O)N[C@@H](CCC(=O)O)C(=O)N[C@@H](CC(=O)O)C(=O)N[C@@H](C)C(=O)N[C@@H](C)C(=O)N1CCC[C@H]1C(=O)N[C@@H](CCC(=O)O)C(=O)N[C@@H](CCC(=O)O)C(=O)N[C@@H](CC(C)C)C(=O)N[C@@H](CCC(N)=O)C(=O)N[C@@H](CCCCN)C(=O)N[C@@H](Cc1ccc(O)cc1)C(=O)N[C@@H](Cc1ccc(O)cc1)C(=O)N[C@H](C(=O)N[C@@H](CO)C(=O)N[C@@H](CC(C)C)C(=O)N[C@@H](CCCNC(=N)N)C(=O)N[C@@H](Cc1c[nH]cn1)C(=O)N[C@@H](Cc1ccc(O)cc1)C(=O)N[C@@H](Cc1ccc(O)cc1)C(=O)N[C@@H](CC(N)=O)C(=O)N[C@@H](Cc1c[nH]c2ccccc12)C(=O)N[C@@H](CC(C)C)C(=O)N[C@H](C(=O)N[C@@H](CCCNC(=N)N)C(=O)N[C@@H](CCC(N)=O)C(=O)N[C@@H](CCCNC(=N)N)C(=O)N[C@@H](Cc1ccc(O)cc1)C(N)=O)[C@@H](C)O)C(C)C
- Ki: 0.6 nM

B6: Compound 204 (peptide)
peptide: Isovaleryl-APEK([AEEA-AEEA-γGlu-C18 diacid])PEEEASPEEVQRYYVSLRHYYNWLTRQRY-NH2
SMILES: CC(C)CC(=O)N[C@@H](C)C(=O)N1CCC[C@H]1C(=O)N[C@@H](CCC(=O)O)C(=O)N[C@@H](CCCCNC(=O)COCCOCCNC(=O)COCCOCCNC(=O)CC[C@H](NC(=O)CCCCCCCCCCCCCCCCC(=O)O)C(=O)O)C(=O)N1CCC[C@H]1C(=O)N[C@@H](CCC(=O)O)C(=O)N[C@@H](CCC(=O)O)C(=O)N[C@@H](CCC(=O)O)C(=O)N[C@@H](C)C(=O)N[C@@H](CO)C(=O)N1CCC[C@H]1C(=O)N[C@@H](CCC(=O)O)C(=O)N[C@@H](CCC(=O)O)C(=O)N[C@H](C(=O)N[C@@H](CCC(N)=O)C(=O)N[C@@H](CCCNC(=N)N)C(=O)N[C@@H](Cc1ccc(O)cc1)C(=O)N[C@@H](Cc1ccc(O)cc1)C(=O)N[C@H](C(=O)N[C@@H](CO)C(=O)N[C@@H](CC(C)C)C(=O)N[C@@H](CCCNC(=N)N)C(=O)N[C@@H](Cc1c[nH]cn1)C(=O)N[C@@H](Cc1ccc(O)cc1)C(=O)N[C@@H](Cc1ccc(O)cc1)C(=O)N[C@@H](CC(N)=O)C(=O)N[C@@H](Cc1c[nH]c2ccccc12)C(=O)N[C@@H](CC(C)C)C(=O)N[C@H](C(=O)N[C@@H](CCCNC(=N)N)C(=O)N[C@@H](CCC(N)=O)C(=O)N[C@@H](CCCNC(=N)N)C(=O)N[C@@H](Cc1ccc(O)cc1)C(N)=O)[C@@H](C)O)C(C)C)C(C)C
- Ki: 3.35 nM
